Measurements from the RNAGym collection of RNA variant scans (doi:10.7554/elife.80360).

B1: CPEB3 Ribozyme (parent)
chain: GGGGGCCACAGCAGAAGCGUUCACGUCGCGGCCCCUGUCAGAUUCUGGUGAAUCUGCGAAUUCUGCUGU

Variants of: B1
Experiment: self-cleavage, relative activity (ratio to wild type); higher = more cleavage; co-transcriptional

Variant | self-cleavage
GGGGGCCACAGCAGAAGCGUUCACGUCGCGGCCCCUGUCAGAUUCUGGUGAAUUUGCGAAUUCUGCAGU [C54U U67A] | 0.993
GGGGGCCACAGCAGAAGCGUUCACGUCGCGGCCCCUGUCAGAUUCUGGUGAAUUUGCGAAUUCUGCCGU [C54U U67C] | 1.01
GGGGGCCACAGCAGAAGCGUUCACGUCGCGGCCCCUGUCAGAUUCUGGUGAAUUUGCGAAUUCUGCGGU [C54U U67G] | 0.987
GGGGGCCACAGCAGAAGCGUUCACGUCGCGGCCCCUGUCAGAUUCUGGUGAAUUUGCGAAUUCUGCUGC [C54U U69C] | 1.07
GGGGGCCACAGCAGAAGCGUUCACGUCGCGGCCCCUGUCAGAUUCUGGUGAAUUUGCGAAUUCUGCUGG [C54U U69G] | 1.06
GGGGGCCACAGCAGAAGCGUUCACGUCGCGGCCCCUGUCAGAUUCUGGUGAAUCAGCGCAUUCUGCUGU [U55A A59C] | 0.394
GGGGGCCACAGCAGAAGCGUUCACGUCGCGGCCCCUGUCAGAUUCUGGUGAAUCAGCGGAUUCUGCUGU [U55A A59G] | 0.981
GGGGGCCACAGCAGAAGCGUUCACGUCGCGGCCCCUGUCAGAUUCUGGUGAAUCAGCGUAUUCUGCUGU [U55A A59U] | 0.456
GGGGGCCACAGCAGAAGCGUUCACGUCGCGGCCCCUGUCAGAUUCUGGUGAAUCAGCGAGUUCUGCUGU [U55A A60G] | 0.615
GGGGGCCACAGCAGAAGCGUUCACGUCGCGGCCCCUGUCAGAUUCUGGUGAAUCAGCGAUUUCUGCUGU [U55A A60U] | 0.298
GGGGGCCACAGCAGAAGCGUUCACGUCGCGGCCCCUGUCAGAUUCUGGUGAAUCAGCGAAUUAUGCUGU [U55A C63A] | 0.464
GGGGGCCACAGCAGAAGCGUUCACGUCGCGGCCCCUGUCAGAUUCUGGUGAAUCAGCGAAUUGUGCUGU [U55A C63G] | 0.438
GGGGGCCACAGCAGAAGCGUUCACGUCGCGGCCCCUGUCAGAUUCUGGUGAAUCAGCGAAUUCUGAUGU [U55A C66A] | 0.561
GGGGGCCACAGCAGAAGCGUUCACGUCGCGGCCCCUGUCAGAUUCUGGUGAAUCAGCGAAUUCUGGUGU [U55A C66G] | 0.68
GGGGGCCACAGCAGAAGCGUUCACGUCGCGGCCCCUGUCAGAUUCUGGUGAAUCAGCGAAUUCUGUUGU [U55A C66U] | 0.944
GGGGGCCACAGCAGAAGCGUUCACGUCGCGGCCCCUGUCAGAUUCUGGUGAAUCAACGAAUUCUGCUGU [U55A G56A] | 0.976
GGGGGCCACAGCAGAAGCGUUCACGUCGCGGCCCCUGUCAGAUUCUGGUGAAUCACCGAAUUCUGCUGU [U55A G56C] | 0.636
GGGGGCCACAGCAGAAGCGUUCACGUCGCGGCCCCUGUCAGAUUCUGGUGAAUCAUCGAAUUCUGCUGU [U55A G56U] | 0.694
GGGGGCCACAGCAGAAGCGUUCACGUCGCGGCCCCUGUCAGAUUCUGGUGAAUCAGCCAAUUCUGCUGU [U55A G58C] | 0.993
GGGGGCCACAGCAGAAGCGUUCACGUCGCGGCCCCUGUCAGAUUCUGGUGAAUCAGCUAAUUCUGCUGU [U55A G58U] | 0.988

Variant | self-cleavage
GGGGGCCACAGCAGAAGCGUUCACGUCGCGGCCCCUGUCAGAUUCUGGUGAAUCAGCGAAUUCUACUGU [U55A G65A] | 0.581
GGGGGCCACAGCAGAAGCGUUCACGUCGCGGCCCCUGUCAGAUUCUGGUGAAUCAGCGAAUUCUGCUAU [U55A G68A] | 0.942
GGGGGCCACAGCAGAAGCGUUCACGUCGCGGCCCCUGUCAGAUUCUGGUGAAUCAGCGAAUUCUGCUUU [U55A G68U] | 0.992
GGGGGCCACAGCAGAAGCGUUCACGUCGCGGCCCCUGUCAGAUUCUGGUGAAUCAGCGAAAUCUGCUGU [U55A U61A] | 0.635
GGGGGCCACAGCAGAAGCGUUCACGUCGCGGCCCCUGUCAGAUUCUGGUGAAUCAGCGAAGUCUGCUGU [U55A U61G] | 0.6
GGGGGCCACAGCAGAAGCGUUCACGUCGCGGCCCCUGUCAGAUUCUGGUGAAUCAGCGAAUGCUGCUGU [U55A U62G] | 0.531
GGGGGCCACAGCAGAAGCGUUCACGUCGCGGCCCCUGUCAGAUUCUGGUGAAUCAGCGAAUUCCGCUGU [U55A U64C] | 0.479
GGGGGCCACAGCAGAAGCGUUCACGUCGCGGCCCCUGUCAGAUUCUGGUGAAUCAGCGAAUUCGGCUGU [U55A U64G] | 0.613
GGGGGCCACAGCAGAAGCGUUCACGUCGCGGCCCCUGUCAGAUUCUGGUGAAUCAGCGAAUUCUGCCGU [U55A U67C] | 0.906
GGGGGCCACAGCAGAAGCGUUCACGUCGCGGCCCCUGUCAGAUUCUGGUGAAUCAGCGAAUUCUGCUGA [U55A U69A] | 1.02
GGGGGCCACAGCAGAAGCGUUCACGUCGCGGCCCCUGUCAGAUUCUGGUGAAUCAGCGAAUUCUGCUGC [U55A U69C] | 1.06
GGGGGCCACAGCAGAAGCGUUCACGUCGCGGCCCCUGUCAGAUUCUGGUGAAUCCGCGUAUUCUGCUGU [U55C A59U] | 0.545
GGGGGCCACAGCAGAAGCGUUCACGUCGCGGCCCCUGUCAGAUUCUGGUGAAUCCGCGACUUCUGCUGU [U55C A60C] | 0.306
GGGGGCCACAGCAGAAGCGUUCACGUCGCGGCCCCUGUCAGAUUCUGGUGAAUCCGAGAAUUCUGCUGU [U55C C57A] | 0.367
GGGGGCCACAGCAGAAGCGUUCACGUCGCGGCCCCUGUCAGAUUCUGGUGAAUCCGCGAAUUAUGCUGU [U55C C63A] | 0.464
GGGGGCCACAGCAGAAGCGUUCACGUCGCGGCCCCUGUCAGAUUCUGGUGAAUCCGCGAAUUGUGCUGU [U55C C63G] | 0.532
GGGGGCCACAGCAGAAGCGUUCACGUCGCGGCCCCUGUCAGAUUCUGGUGAAUCCGCGAAUUUUGCUGU [U55C C63U] | 0.85
GGGGGCCACAGCAGAAGCGUUCACGUCGCGGCCCCUGUCAGAUUCUGGUGAAUCCGCGAAUUCUGAUGU [U55C C66A] | 0.342
GGGGGCCACAGCAGAAGCGUUCACGUCGCGGCCCCUGUCAGAUUCUGGUGAAUCCGCGAAUUCUGGUGU [U55C C66G] | 0.437
